This assay concerns the target hAgo2 (Homo sapiens), Q9UKV8. In words: cleavage activity titration. As to conditions: siRNA-bound hAgo2; remark: other sources report otherwise.

hAgo2 (Homo sapiens), Q9UKV8, sequence (Q9UKV8 whole entry): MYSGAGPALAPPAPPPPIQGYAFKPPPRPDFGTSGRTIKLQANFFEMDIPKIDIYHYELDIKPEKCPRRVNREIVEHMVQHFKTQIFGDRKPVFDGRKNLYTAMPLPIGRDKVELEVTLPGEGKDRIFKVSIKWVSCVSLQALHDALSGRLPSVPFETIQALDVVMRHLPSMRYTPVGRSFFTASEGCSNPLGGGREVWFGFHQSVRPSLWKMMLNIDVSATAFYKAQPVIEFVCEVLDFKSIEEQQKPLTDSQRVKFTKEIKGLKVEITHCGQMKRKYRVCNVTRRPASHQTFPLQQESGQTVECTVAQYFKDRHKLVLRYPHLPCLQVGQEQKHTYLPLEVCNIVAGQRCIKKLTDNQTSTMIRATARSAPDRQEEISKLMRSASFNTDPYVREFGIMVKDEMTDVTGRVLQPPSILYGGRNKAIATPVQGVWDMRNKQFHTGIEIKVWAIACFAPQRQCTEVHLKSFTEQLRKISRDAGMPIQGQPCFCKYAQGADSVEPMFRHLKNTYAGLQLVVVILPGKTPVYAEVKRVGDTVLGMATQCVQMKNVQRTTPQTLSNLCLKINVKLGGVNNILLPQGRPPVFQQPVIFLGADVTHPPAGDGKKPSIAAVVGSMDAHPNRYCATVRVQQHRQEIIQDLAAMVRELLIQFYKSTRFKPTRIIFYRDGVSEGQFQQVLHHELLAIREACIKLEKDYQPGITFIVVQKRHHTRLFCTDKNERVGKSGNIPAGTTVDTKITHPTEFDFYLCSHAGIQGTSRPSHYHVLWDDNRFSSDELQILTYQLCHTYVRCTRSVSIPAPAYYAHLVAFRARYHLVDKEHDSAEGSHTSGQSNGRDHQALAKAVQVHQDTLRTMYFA

B1: hTRBP, Q15633 (protein)
chain: MSEEEQGSGTTTGCGLPSIEQMLAANPGKTPISLLQEYGTRIGKTPVYDLLKAEGQAHQPNFTFRVTVGDTSCTGQGPSKKAAKHKAAEVALKHLKGGSMLEPALEDSSSFSPLDSSLPEDIPVFTAAAAATPVPSVVLTRSPPMELQPPVSPQQSECNPVGALQELVVQKGWRLPEYTVTQESGPAHRKEFTMTCRVERFIEIGSGTSKKLAKRNAAAKMLLRVHTVPLDARDGNEVEPDDDHFSIGVGSRLDGLRNRGPGCTWDSLRNSVGEKILSLRSCSLGSLGALGPACCRVLSELSEEQAFHVSYLDIEELSLSGLCQCLVELSTQPATVCHGSATTREAARGEAARRALQYLKIMAGSK
For B1, the Kd was 2 µM.

By Kd is commonly meant the equilibrium constant for the complex coming apart. A high value points to lower affinity.

The record behind these values is paper PMC4718636.
